According to patent US7033593:

How the values were obtained:
[1] = target: T1, CD4-gp140-D1 complex (HIV 89.6 gp140 bound to sCD4 and the CCR5-D1 peptide) (HIV 89.6 (Clade B) primary isolate; human), Q73372; assay: SPR, RU bound at steady state, row CD4+gp140+R5-D1 (89.6 gp140)
[2] = target: CD4-gp120 complex (HIV 89.6 gp120 bound to sCD4) (HIV 89.6 (Clade B) primary isolate), Q73372; assay: SPR, row CD4-gp120
[3] = target: T2, CD4-gp140 complex (HIV 89.6 gp140 bound to sCD4) (HIV 89.6 (Clade B) primary isolate), Q73372; assay: SPR, row CD4+gp140 (89.6 gp140); column headed Kd s-1
[4] = target: T1, CD4-gp140-D1 complex (HIV 89.6 gp140 …); assay: SPR, row CD4+gp140+R5-D1 (89.6 gp140); column headed Ka
[5] = target: T1, CD4-gp140-D1 complex (HIV 89.6 gp140 …); assay: SPR, row CD4+gp140+R5-D1 (89.6 gp140)
[6] = target: T2, CD4-gp140 complex (HIV 89.6 gp140 bound …); assay: SPR, RU bound at steady state, row CD4+gp140 (89.6 gp140)
[7] = target: T2, CD4-gp140 complex (HIV 89.6 gp140 bound …); assay: SPR, row CD4+gp140 (89.6 gp140); column headed Ka
[8] = target: T2, CD4-gp140 complex (HIV 89.6 gp140 bound …); assay: SPR, row CD4-gp140
[9] = target: T2, CD4-gp140 complex (HIV 89.6 gp140 bound …); assay: SPR, row CD4+gp140 (89.6 gp140)
[10] = target: T1, CD4-gp140-D1 complex (HIV 89.6 gp140 …); assay: SPR, row CD4+gp140+R5-D1 (89.6 gp140); column headed Kd s-1
[11] = target: soluble HIV 89.6 gp140 envelope protein (cleaved gp140 preparation) (HIV 89.6 (Clade B) primary isolate), Q73372; assay: SPR, peptide over directly immobilised 89.6 gp140, no CD4
[12] = target: T2, CD4-gp140 complex (HIV 89.6 gp140 bound …); assay: SPR (FIG. 10D); the legend of the same figure prints 280 nM
[13] = target: T2, CD4-gp140 complex (HIV 89.6 gp140 bound …); assay: SPR, peptide over gp140 captured on immobilised CD4

WMEWDREINNYTSLIHSLIEESQNQLEKNEQELLEL (modifications not checked) [HR-2 peptide T649Q26L]
Rm [1]: 64 RU | Kd [2]: 2540 nM | koff [2]: 0.0032 s⁻¹ | kon [2]: 1260 M⁻¹ s⁻¹ | t1/2 [2]: 3.62 min | koff [3]: 0.0146 s⁻¹ | kon [4]: 5100 M⁻¹ s⁻¹ | Kd [5]: 1000 nM | t1/2 [5]: 2.18 min | Rm [6]: 53 RU | kon [7]: 6200 M⁻¹ s⁻¹ | Kd [8]: 1200 nM | koff [8]: 0.0011 s⁻¹ | kon [8]: 880 M⁻¹ s⁻¹ | t1/2 [8]: 10.5 min | Kd [9]: 2400 nM | t1/2 [9]: 0.8 min | koff [10]: 0.0053 s⁻¹

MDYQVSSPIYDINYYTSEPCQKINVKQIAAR (modifications not checked) [CCR5-D1 peptide]
Kd [11]: 1000 nM | koff [11]: 0.01 s⁻¹ | Kd [12]: 280 nM | Kd [13]: 280 nM | koff [13]: 0.00256 s⁻¹ | kon [13]: 9000 M⁻¹ s⁻¹
